The results in this text go back to the supplement of paper PMC9942255.

In the data set the test system is Bacillus subtilis DB104 (SP-AmyQ fusion secretion). Kind of data set: AmyQ secretion efficiency, weighted average sort bin (1 = best secretion, 10 = worst) (bin number (weighted average, 1-10)); higher = lower secretion efficiency. Summed up:
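Occupied alginate beads were sorted by large-particle flow cytometry into 10 equally populated bins according to green/red fluorescence ratio. Each bead (~65 nL) held fluorescein-starch and about 0.3 cells of a B. subtilis DB104 library expressing mature AmyQ fused to designed signal peptides from the amyE locus, and beads were grown about 13 h at room temperature and stained with nile red before sorting. Bin amplicons were Illumina-sequenced, and the secretion score is the read-frequency-weighted average bin number, normalised to beads per bin, excluding low-abundance sequences.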

Several values for one entry are separate records, joined by “and”; a condition that tells them apart may be missing. Identical values can stand only once.

Consider MNFKKTVRKRRSISALALSVSGVASAHEI, for which the AmyQ secretion efficiency was found to be 7.55.

For the sequence MPRKKKQKYRCLAVTLVFGSMSFPTLTNSGGFKE, the AmyQ secretion efficiency came out at 6.94.

For the sequence MKRLFMKASLVLFAVVFVFAVKGAPIKAETH, the AmyQ secretion efficiency was found to be 2.24.

Take MKKAFILSAAAAVGLFTFDDDQQASAKEL: the AmyQ secretion efficiency was determined as 2.77.

Turning to MTKKTSIILITSAWFLPLVCVLLISGWLAPAASASAQTT, the AmyQ secretion efficiency stood at 2.35.

Consider MKKRLIAPMLLSAASLAFFAMSGSAQSAAY, for which the AmyQ secretion efficiency turned out to be 5.28.

MKRNIFNNINLSLLSTLLIGIMLLTFAPSAFAKQD returned an AmyQ secretion efficiency of 2.

The sequence MAIIIAIIAAVIVIAALITFNVRNSSPG yielded an AmyQ secretion efficiency of 8.62.

With MKLAKRVSALTPSTTLAITQKAKEL, the AmyQ secretion efficiency came out at 5.63.

In turn, MAIIIAIIAAVIVIAALITFNVWNASPG yielded an AmyQ secretion efficiency of 7.05.

In the case of MRKVLTMCFLGLILFVPTALADNS, the AmyQ secretion efficiency turned out to be 2.17.

As to MKNMSCKLVVSVTLFFSFLTIGPLAPVGVSPVAHAQNS, the AmyQ secretion efficiency is 1.75.

The sequence MNKLKRLSMLTVMIASVFIFSSHQLAAQY showed an AmyQ secretion efficiency of 4.72.

On to MKKIVSILFMFGLVMKKKQFQPSTVFAADK, for which the AmyQ secretion efficiency amounted to 7.82.

Take MKKVRRATALFLGLTPAGANAADL: the AmyQ secretion efficiency was 7.17.

For the sequence MNLRKILLSSALSLGMLVSAAPVLARKR, the AmyQ secretion efficiency is 5.51.

MTKKAWFLPLVCVLLISGWLAPAASASEQTT yielded an AmyQ secretion efficiency of 1.79.

MPYLKRVLLLLVTGLFMSLFAVTATQSAQTG displayed an AmyQ secretion efficiency of 3.84.

Take MMKKLFHSTLIVLLFFSFFGVQPEIHAKKQ: the AmyQ secretion efficiency came to 2.24.

On to MKLSVKIAGVLTVAAAAMVAIMGATAKGN, for which the AmyQ secretion efficiency was determined as 8.27.

MKKTIMSFVAVAALSTTAFFAIASAKEI: the AmyQ secretion efficiency was determined as 6.16.

For the sequence MYGKIALTLCPAIVGSLLFFTAPASAHVS, the AmyQ secretion efficiency was determined as 2.26.

Consider MKSCKQLIVCSLAAILLLIPSVAFAADS, for which the AmyQ secretion efficiency turned out to be 2.83.

Regarding MVKKWLIMFAVMLGVLMTFTYSASAVGV, the AmyQ secretion efficiency is 1.93.

On to MKKRRKSFVAVAALSTTAFGAHASAKEI, for which the AmyQ secretion efficiency worked out at 6.63.

For the sequence MKRIRIPMTLALGAALTIAPLSFVSAEEN, the AmyQ secretion efficiency amounted to 2.58.

For the sequence MKWMCSICCAAVLLAGGADQAEAV, the AmyQ secretion efficiency came out at 2.46.

Turning to MLKRTSFVSSLRRKRKKLLSILLPSGQAHAQSA, the AmyQ secretion efficiency is 6.99.

The sequence MKKRLIAPMLLSAASLAFFAMSGSAQAAAR had an AmyQ secretion efficiency of 4.69.

On to MNKLKRLSMLTVMIASVFIFSSHALAADD, for which the AmyQ secretion efficiency came to 4.21.

In turn, MKKWMITIAMLILAGIALFVFISPLKRHKT returned an AmyQ secretion efficiency of 7.32.

MRSKKLWISLLFALTLIFTMAFSNMSPQAAGK yielded an AmyQ secretion efficiency of 4.28.

In turn, MKKTIMSFVAVAALSTTAFRRRKKKHASAKEI came in with an AmyQ secretion efficiency of 6.72.

MKVLLSALLLLLFAFEPSASEKKL yielded an AmyQ secretion efficiency of 5.89.

Regarding MKNMSCKTNLVVSVTLFFSFLTIGPLAHAQNS, the AmyQ secretion efficiency is 1.06.

Regarding MKKKQVMLALTAAAGLGLTALHSAPAAKGAPL, the AmyQ secretion efficiency was 3.51.

Sequence MRGKSAVLLSLIMLIAGFLISFPFQM returned an AmyQ secretion efficiency of 5.95.

As to MKKAFLVFLSVVLVTTVFLVKQQEAQAKQL, the AmyQ secretion efficiency is 2.1.

MRRKKRKAVLLSLIMLIAGFLISFSFQM returned an AmyQ secretion efficiency of 7.79.

For the sequence MKKKQVMLALTAAAGLGLTALHSAPADKAAPL, the AmyQ secretion efficiency is 5.48.

MKKKQVMLALTAAAGLGLTAHSAPAAKAAPL returned an AmyQ secretion efficiency of 2.01.

MGMKKKLRKKRASAALGLALVGGGTWAAFN: the AmyQ secretion efficiency stood at 5.51.

Sequence MKKKQVMLALTAAAGLGLTALHSAPANKAAPL gave an AmyQ secretion efficiency of 5.6.

MIAYFGKCRKRRTIMFLGVLFGMQQANHG showed an AmyQ secretion efficiency of 4.01.

Sequence MKLKKRVSMFLVALTMCGGLFVTPQAKAVKT yielded an AmyQ secretion efficiency of 3.89.

MIAYFGKCLLLVTIMFLGVLFTAVVVIAGMQQANHG registered an AmyQ secretion efficiency of 5.06.

MKKRLIAPMLLSAASLAFFAMSGSTQAAAY displayed an AmyQ secretion efficiency of 3.66.

Sequence MLCVMMLLFSAIALFLVASFPVSAQAKDQ returned an AmyQ secretion efficiency of 7.1.

MRKKLKWLSFLLGFIILLFLFKYQQSNNDS returned an AmyQ secretion efficiency of 6.25.

MKKAAAVLLSLGLVFEDEDEAGHVAEAKTK registered an AmyQ secretion efficiency of 5.2.

On to MKKKLAAGLTASAIVGTTLVVTPAESATI, for which the AmyQ secretion efficiency turned out to be 3.72.

Turning to MTKKAWFLPLVCVLLISGWLAASAQTT, the AmyQ secretion efficiency amounted to 6.17.

On to MKRMIVRMTKKRRIVCLAFSSFSASARAASE, for which the AmyQ secretion efficiency worked out at 5.68.

In turn, MKQIMIFLTSFMLLAMTGTTALAKDV displayed an AmyQ secretion efficiency of 3.67.

With MTVPITMLLSTAAGLLLSLTATSVSAHYV, the AmyQ secretion efficiency stood at 6.06.

MGQGKGSVFLILLLMLTLVVAPKEKAEAASS: the AmyQ secretion efficiency was 1.82.

MRKIIGWILLLCIIPLFAFTVIASGKEV came in with an AmyQ secretion efficiency of 7.63.

In turn, MTKKARKLPLVCVLLISGWLAPAASASAQTT showed an AmyQ secretion efficiency of 1.96.

Sequence MFNRLFRVCFLAALIMTLPNSVYAQKP gave an AmyQ secretion efficiency of 2.44.

Sequence MKVLLSALLLLLFAFEPSASKKKL had an AmyQ secretion efficiency of 6.2.

In turn, MAIIIAIIAAVIVIAALITFNVVNASPG displayed an AmyQ secretion efficiency of 8.99.

MKSKWMSGLLLVAVGFSFIALFATQVMVHAGET displayed an AmyQ secretion efficiency of 7.59.

On to MKLRKVLTGSVLSLGLLPPSSPAFATSP, for which the AmyQ secretion efficiency was 1.49.

Take MKLKSKLFVICLAAAAIFTAAGVSANAEALDF: the AmyQ secretion efficiency was 7.41 and 6.26.

Regarding MKKKKYVVLVLSIAGIGGFSVHAASS, the AmyQ secretion efficiency turned out to be 6.5.

MRKKTKNRLISSVLSTVVISSPGAAGASSK had an AmyQ secretion efficiency of 3.33.

Take MKKTIMSFVAVAALSTTAFTGAHASAKEI: the AmyQ secretion efficiency came out at 2.34.

Sequence MLKKKWMVGLLAGCLAAGGFSYNRFATEN had an AmyQ secretion efficiency of 6.33.

Turning to MKKWMAGLFLAAAVLLCLMVPQQLQGASS, the AmyQ secretion efficiency is 5.67.

MAIIIAIIAAVIVIAALITFTSNVRNASPG had an AmyQ secretion efficiency of 7.45.

The sequence MKSKGSIMACLILFSFTITTFINTETISAFSR displayed an AmyQ secretion efficiency of 3.97.

The sequence MRSYIKVLTMCFLGLILFVKRRKRRALADNS gave an AmyQ secretion efficiency of 7.48.

In turn, MKKIWIGMLAAAVLLLMVPKVDLADAA yielded an AmyQ secretion efficiency of 4.2.

As to MAIIIAIIAAVIVIAALITFNVFNASPG, the AmyQ secretion efficiency was found to be 7.58.

Take MKKAAAVLLSLGLVFGFSYGAGHVAEAAKK: the AmyQ secretion efficiency worked out at 5.64.

On to MKVPKTMLLSTAAGLLLSLTATSVSSHYV, for which the AmyQ secretion efficiency is 7.63.

In turn, MKKRFFGPIILAFILFAGVIAIPS came in with an AmyQ secretion efficiency of 6.86.

MFNRLFRVCFLAALIMAFTLPNSVYLQKP had an AmyQ secretion efficiency of 6.77.

As for MTMLRKIIGWILLLCIIPSKQQSSIASGKEV, the AmyQ secretion efficiency is 6.84.

With MKKTIMSFVAVAALSTTAFGAHASWKEI, the AmyQ secretion efficiency came out at 6.56.

MKKVKKRKRKCLSLILSVLAAPPSGAKAESV came in with an AmyQ secretion efficiency of 7.36.

MKKGIIRFLLVSFVLFFALSTGITGSQAAPA returned an AmyQ secretion efficiency of 4.62.

With MKSKGSIMACLILFSFTITTFINTETLSAFSN, the AmyQ secretion efficiency came to 6.34.

Regarding MKKVLMAFIICLSLILSVLAAPPSGIKAESV, the AmyQ secretion efficiency was 3.36.

Sequence MFKKPTISLLIIFLLASAVLAKPIEAHTV returned an AmyQ secretion efficiency of 2.38.

The sequence MRNLTKTSLLLAGLCQMVFVTHASAEES yielded an AmyQ secretion efficiency of 3.18.

As for “MMKKGSLFFLLAGALTATVLFGTCAVDVPGIISPKTAEAASQ”, the AmyQ secretion efficiency was found to be 3.32.

Consider MKKQIITATTAVVLGSTLFAGAAAVASAQSI, for which the AmyQ secretion efficiency was 3.9.

MKKRLIGFLVLVPALIMSGITLIEANSE gave an AmyQ secretion efficiency of 7.68.

Consider MKKKRLFIFSAILTLSIFAPNETFAQTA, for which the AmyQ secretion efficiency was 2.43.

MLCVMMLLFSAIASFPVSAQNKDQ: the AmyQ secretion efficiency turned out to be 6.98.

Regarding MKRMIVRMTLPLLIVCLAFSSFSASTRAASE, the AmyQ secretion efficiency was 2.26.

Sequence MTRFILVLSFLSIIVAYPIQTNASPM came in with an AmyQ secretion efficiency of 5.75.

For the sequence MFNRLFRVCFLAALIMAFTLPNSNYAQKP, the AmyQ secretion efficiency was 5.99.

MRKTIFAFLTGLMMFKKRTAASASPD showed an AmyQ secretion efficiency of 6.93.

In turn, MKKLSVAVAASFMSLSISLPGVQAAEG came in with an AmyQ secretion efficiency of 1.57.

MKNMSCKLVVSVTLFFSFLGIFVLAHAQNS gave an AmyQ secretion efficiency of 4.32.

MKKKMLNLFLAAGLTASAIVGTTLVVTPAEAATI gave an AmyQ secretion efficiency of 4.26.

The sequence MKLSVKIAGVLTVAATAKMYATAKGN gave an AmyQ secretion efficiency of 7.17.

MFKFKKNTRGGLSAALMSISLFSATASAAST returned an AmyQ secretion efficiency of 3.49.

MMKKGLLAGALTATVLFGTCAVDVPKAEAASQ registered an AmyQ secretion efficiency of 1.63.

For MKQGKFSVFLILLLMLTLVVTIFAALVIAPKEKAEAASS, the AmyQ secretion efficiency was found to be 3.57.

The sequence MKVCQKSIVRFLVFLIIFLFVIGTSVPFMANAQSD returned an AmyQ secretion efficiency of 2.68.

Sequence MRKKRVITCVMAASLTLGSLLPAGYATADDE registered an AmyQ secretion efficiency of 4.08.

MKKVLMAFIICLSLILSVLAAPPSGAKAASE: the AmyQ secretion efficiency was 1.49.

MKKRLIAPMLKRRKSLAFFAMSGSAQAAAY showed an AmyQ secretion efficiency of 7.31.

MRKKRVITCVMAASPAGYATAKED returned an AmyQ secretion efficiency of 7.65.

Sequence MAAQTDYKKQVVGILLSLAFVLFVFSCSERHE had an AmyQ secretion efficiency of 4.02.
